# Reference: paper PMC5061722
# How the values were obtained:
# Test in all cases: SEC
# [1] = biological target: EpsE-XcpR CM-Hcp1 chimera fusion (UniProt P37093)
# [2] = biological target: full-length EpsE-Hcp1 fusion (pET21(d)epsE(1-503)-8aa-hcp1-his6) (UniProt P37093)
# [3] = biological target: truncated ΔN1-EpsE-Hcp1 fusion (pET21(d)epsE(100-503)-8aa-hcp1-his6) (UniProt P37093)
substance,measurement,setting,value
EpsE-XcpR CM-Hcp1 chimera fusion (from UniProt P37093),stoichiometry N,[1],6
full-length EpsE-Hcp1 fusion (pET21(d)epsE(1-503)-8aa-hcp1-his6) (from UniProt P37093 1-503),stoichiometry N,[2],6
truncated ΔN1-EpsE-Hcp1 fusion (pET21(d)epsE(100-503)-8aa-hcp1-his6) (from UniProt P37093 100-503),stoichiometry N,[3],6
